Experiments:
[1] = biological target: T1, Complement Factor H protein (human, UniProt P08603 19-1231); test: bispecific ELISA
T1 construct: Plasma protein, bought purified or present in normal human serum; also called FH; CFH
Procedure: BsAbs were tested for binding to both antigens in a bispecific ELISA. MaxiSorp plates (Thermo Scientific, Nunc, 430341) were coated with 50 μL/well BSA-DNP (10 μg/mL, Biosearch Technologies, D-5050-10, conjugation ration 13) in coating buffer (0.1 M Na₂CO₃/NaHCO₃PH 9.6) for 1 hour at 37° C. After every incubation, plates were washed three times with PBS/0.05% Tween 20. Plates were blocked with 100 μL/well PBS/1% BSA for 1 hour at 37° C. After washing, plates were incubated with 50 μL/well (bs) Abs diluted in PBS/0.05% Tween 20/1% BSA (PTB buffer) for 1 hour at 37° C. Next, 1 μg/mL FH (CompTech, A137) or C4BP (CompTech, A109) diluted in PTB buffer was added. FH was detected using goat anti-human FH (Quidel, A312) and HRP-labeled rabbit anti-goat Ig (Dako, P0449), and C4BP was detected using rabbit anti-human C4BP (kind gift from Anna M. Blom, Malmö, Sweden) and HRP-labeled goat anti-rabbit Ig (Dako, P0448), all diluted in PTB buffer. Plates were developed by incubating with 50 μL/well ABTS (Merck, A1888-5G) containing 1:2000 diluted H₂O₂ (Merck, 1072090250), and read at 415 nm using a microplate reader (BIO-RAD iMark). It was confirmed by ELISA that the bsAbs can bind to a specific target (e.g., DNP as a model antigen) as well as FH or C4BP, whereas the parental monospecific antibodies cannot (FIG. 1A).

[2] = biological target: T1, Complement Factor H protein; test: flow cytometry, FH detected on Ramos cells treated with bsAb and normal human serum
Procedure: Ramos cells (originally from ATCC) were plated at 100,000 cells/well (V-bottom microplate, Greiner Bio-One, 651101). Cells were incubated with 100 μL/well samples containing 0.3 μg/mL anti-CD20 wild-type with or without 20 μg/mL bsAbs (anti-FH x anti-HLA I and controls) with or without 10 μg/mL FH for 30 minutes. After every incubation, cells were washed with 150 μL/well PBS/1% FCS. Cells were incubated with 100 μL/well 10% NHS in RPMI (for FH detection in the presence of 50 μg/mL eculizumab) for 45 minutes at 37° C. Cell viability was measured by adding 100 μL/well 7-AAD (BD Pharmingen, 559925) 1:200 diluted in PBS/1% FCS. FH was detected using mouse anti-human FH (1:100, OX-23, generated in-house) and goat anti-mouse IgG AF488 (1:50, Life Technologies, A11001). Cells were measured using a FACSCanto flow cytometer (BD Biosciences).

[3] = biological target: T2, C4b-binding protein (human, UniProt P04003 49-597; P20851 18-252); test: bispecific ELISA and complement activation assay on biotinylated BSA-DNP, C4BP detected
T2 construct: also called C4BP
T2 sequence (looked up) 1: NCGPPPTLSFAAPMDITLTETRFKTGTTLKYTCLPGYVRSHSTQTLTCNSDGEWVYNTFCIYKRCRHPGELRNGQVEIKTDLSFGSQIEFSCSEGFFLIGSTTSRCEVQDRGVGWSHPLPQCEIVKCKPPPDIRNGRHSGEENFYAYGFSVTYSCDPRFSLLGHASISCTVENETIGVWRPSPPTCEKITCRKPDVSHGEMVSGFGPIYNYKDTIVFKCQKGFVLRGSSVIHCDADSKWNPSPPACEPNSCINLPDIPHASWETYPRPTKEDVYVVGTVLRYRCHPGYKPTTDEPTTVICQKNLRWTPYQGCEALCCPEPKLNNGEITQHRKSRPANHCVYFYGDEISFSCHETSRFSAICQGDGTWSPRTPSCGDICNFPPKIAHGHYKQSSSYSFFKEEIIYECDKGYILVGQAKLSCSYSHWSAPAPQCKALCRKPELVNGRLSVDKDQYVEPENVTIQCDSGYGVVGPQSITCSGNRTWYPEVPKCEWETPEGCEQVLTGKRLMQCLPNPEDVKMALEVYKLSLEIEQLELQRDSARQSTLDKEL
T2 sequence (looked up) 2: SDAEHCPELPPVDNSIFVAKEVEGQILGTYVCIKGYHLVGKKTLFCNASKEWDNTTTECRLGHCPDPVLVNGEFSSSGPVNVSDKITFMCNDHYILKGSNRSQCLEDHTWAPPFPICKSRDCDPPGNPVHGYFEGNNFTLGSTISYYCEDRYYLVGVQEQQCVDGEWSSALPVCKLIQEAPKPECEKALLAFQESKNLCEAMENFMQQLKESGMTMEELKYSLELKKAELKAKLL

T1 sequence (P08603 19-1231 limits assumed): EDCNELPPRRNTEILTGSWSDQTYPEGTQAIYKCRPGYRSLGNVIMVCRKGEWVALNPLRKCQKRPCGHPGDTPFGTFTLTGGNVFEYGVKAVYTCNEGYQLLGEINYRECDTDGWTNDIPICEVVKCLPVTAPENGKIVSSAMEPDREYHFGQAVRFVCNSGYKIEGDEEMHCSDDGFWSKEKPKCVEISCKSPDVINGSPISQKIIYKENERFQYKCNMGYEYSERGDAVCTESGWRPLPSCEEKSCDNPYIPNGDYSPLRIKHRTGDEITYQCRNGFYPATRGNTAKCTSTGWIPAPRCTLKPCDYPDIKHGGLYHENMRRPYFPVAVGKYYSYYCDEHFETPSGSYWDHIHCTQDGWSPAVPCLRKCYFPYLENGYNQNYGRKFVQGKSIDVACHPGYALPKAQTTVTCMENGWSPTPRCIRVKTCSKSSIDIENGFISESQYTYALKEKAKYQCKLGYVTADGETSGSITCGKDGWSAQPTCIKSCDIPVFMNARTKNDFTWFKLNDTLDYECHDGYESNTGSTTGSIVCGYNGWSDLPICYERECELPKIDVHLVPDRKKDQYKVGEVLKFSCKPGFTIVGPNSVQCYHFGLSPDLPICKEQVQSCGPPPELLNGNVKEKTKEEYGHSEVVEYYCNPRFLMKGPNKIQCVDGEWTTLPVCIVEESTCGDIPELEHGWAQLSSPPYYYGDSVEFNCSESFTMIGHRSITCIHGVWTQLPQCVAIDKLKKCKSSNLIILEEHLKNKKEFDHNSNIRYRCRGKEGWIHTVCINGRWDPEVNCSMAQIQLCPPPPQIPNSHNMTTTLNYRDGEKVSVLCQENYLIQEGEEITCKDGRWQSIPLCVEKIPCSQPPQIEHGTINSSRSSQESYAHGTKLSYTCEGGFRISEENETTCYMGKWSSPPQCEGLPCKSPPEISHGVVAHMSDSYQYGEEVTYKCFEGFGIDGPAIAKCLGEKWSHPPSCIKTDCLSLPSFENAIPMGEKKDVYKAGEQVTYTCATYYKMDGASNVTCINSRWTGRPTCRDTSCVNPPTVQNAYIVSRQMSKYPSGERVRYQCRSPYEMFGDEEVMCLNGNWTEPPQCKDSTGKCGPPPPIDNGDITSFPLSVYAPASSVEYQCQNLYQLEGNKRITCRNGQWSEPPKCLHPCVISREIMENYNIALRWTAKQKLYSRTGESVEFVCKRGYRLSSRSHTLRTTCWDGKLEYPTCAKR

B1: Anti-FH F405L LALAPG, Anti-DNP K409R LALAPG (bispecific antibody, human IgG1, kappa, L234A L235A)
heavy 1: EVQLQQSGPELVKPGASVKISCKASGYSFTGYFIHWVKQSHVKSLEWFGRINPYNGATDYNQNFKDKAILTIDESSSTAYMEIHSLTSDDSAVYYCARGLFLDYWGQGTTLTVSSASTKGPSVFPLAPSSKSTSGGTAALGCLVKDYFPEPVTVSWNSGALTSGVHTFPAVLQSSGLYSLSSVVTVPSSSLGTQTYICNVNHKPSNTKVDKRVEPKSCDKTHTCPPCPAPEAAGGPSVFLFPPKPKDTLMISRTPEVTCVVVDVSHEDPEVKFNWYVDGVEVHNAKTKPREEQYNSTYRVVSVLTVLHQDWLNGKEYKCKVSNKALGAPIEKTISKAKGQPREPQVYTLPPSREEMTKNQVSLTCLVKGFYPSDIAVEWESNGQPENNYKTTPPVLDSDGSFLLYSKLTVDKSRWQQGNVFSCSVMHEALHNHYTQKSLSLSPGK
light 1: DILMTQSPSSMSVSLGDTVSITCHASQGITSNIGWLQQKPGKSFKGLIYHGTNLEDGVPSRFSGSGSGADYSLTISSLESEDFADYYCVQYAQFPWTFGGGTKLEIKRTVAAPSVFIFPPSDEQLKSGTASVVCLLNNFYPREAKVQWKVDNALQSGNSQESVTEQDSKDSTYSLSSTLTLSKADYEKHKVYACEVTHQGLSSPVTKSFNRGEC
heavy 2: DVRLQESGPGLVKPSQSLSLTCSVTGYSITNSYYWNWIRQFPGNKLEWMVYIGYDGSNNYNPSLKNRISITRDTSKNQFFLKLNSVTTEDTATYYCARATYYGNYRGFAYWGQGTLVTVSAASTKGPSVFPLAPSSKSTSGGTAALGCLVKDYFPEPVTVSWNSGALTSGVHTFPAVLQSSGLYSLSSVVTVPSSSLGTQTYICNVNHKPSNTKVDKRVEPKSCDKTHTCPPCPAPEAAGGPSVFLFPPKPKDTLMISRTPEVTCVVVDVSHEDPEVKFNWYVDGVEVHNAKTKPREEQYNSTYRVVSVLTVLHQDWLNGKEYKCKVSNKALGAPIEKTISKAKGQPREPQVYTLPPSREEMTKNQVSLTCLVKGFYPSDIAVEWESNGQPENNYKTTPPVLDSDGSFFLYSRLTVDKSRWQQGNVFSCSVMHEALHNHYTQKSLSLSPGK
light 2: DIRMTQTTSSLSASLGDRVTISCRASQDISNYLNWYQQKPDGTVKLLIYYTSRLHSGVPSRFSGSGSGTDYSLTISNLEQEDIATYFCQQGNTLPWTFGGGTKLEIKRTVAAPSVFIFPPSDEQLKSGTASVVCLLNNFYPREAKVQWKVDNALQSGNSQESVTEQDSKDSTYSLSSTLTLSKADYEKHKVYACEVTHQGLSSPVTKSFNRGEC
notes: Made by controlled Fab-arm exchange of the two parental IgG1 kappa antibodies; also called anti-FH x anti-DNP
B1: binds [1].

B2: Anti-FH F405L LALAPG, Anti-HLA I K409R LALAPG (bispecific antibody, human IgG1, kappa, L234A L235A)
heavy 1: B1 heavy 1
light 1: B1 light 1
heavy 2: QVQLKQSGPGLVQPSQSLSLTCTVSGFSLTSYGVHWVRQPPGKGLEWLGVIWSGGSTDYNAAFISRLSIRKDNSKSQVFFKMNSLQADDTAIYYCARTFTTSTSAWFAYWGQGTLVTVSAASTKGPSVFPLAPSSKSTSGGTAALGCLVKDYFPEPVTVSWNSGALTSGVHTFPAVLQSSGLYSLSSVVTVPSSSLGTQTYICNVNHKPSNTKVDKRVEPKSCDKTHTCPPCPAPEAAGGPSVFLFPPKPKDTLMISRTPEVTCVVVDVSHEDPEVKFNWYVDGVEVHNAKTKPREEQYNSTYRVVSVLTVLHQDWLNGKEYKCKVSNKALGAPIEKTISKAKGQPREPQVYTLPPSREEMTKNQVSLTCLVKGFYPSDIAVEWESNGQPENNYKTTPPVLDSDGSFFLYSRLTVDKSRWQQGNVFSCSVMHEALHNHYTQKSLSLSPGK
light 2: SIVMTQTPKFLLVSAGDRVTITCKASQSVSNDVAWYQQKPGQSPKLLIYYASNRYTGVPDRFTGSGYGTDFTFTISTVQAEDLAVYFCQQDYSSPPWTFGGGTKLEIRRTVAAPSVFIFPPSDEQLKSGTASVVCLLNNFYPREAKVQWKVDNALQSGNSQESVTEQDSKDSTYSLSSTLTLSKADYEKHKVYACEVTHQGLSSPVTKSFNRGEC
notes: Made by controlled Fab-arm exchange; also called anti-FH x anti-HLA I
B2: binds [2].

B3: Anti-C4BP F405L LALAPG, Anti-biotin K409R LALAPG (bispecific antibody, human IgG1, kappa, L234A L235A)
heavy 1: EVQLVESGGGLVKPGGSLKLSCAVSGFIFSDYYMYWVRQTPEKRLEWVATISDGGVYTYYPDSMKGRFTISRDNAKNNLYLQMSSLKSEDTAMYYCVRGDYYGNSLDYWGQGTSVTVSSASTKGPSVFPLAPSSKSTSGGTAALGCLVKDYFPEPVTVSWNSGALTSGVHTFPAVLQSSGLYSLSSVVTVPSSSLGTQTYICNVNHKPSNTKVDKRVEPKSCDKTHTCPPCPAPEAAGGPSVFLFPPKPKDTLMISRTPEVTCVVVDVSHEDPEVKFNWYVDGVEVHNAKTKPREEQYNSTYRVVSVLTVLHQDWLNGKEYKCKVSNKALGAPIEKTISKAKGQPREPQVYTLPPSREEMTKNQVSLTCLVKGFYPSDIAVEWESNGQPENNYKTTPPVLDSDGSFLLYSKLTVDKSRWQQGNVFSCSVMHEALHNHYTQKSLSLSPGK
light 1: DVVMTQTPLTLSITIGQPASISCKSSQSLLDGDGKTYLNWLLQRPGQSPKRLIYLVSKLDSGVPDRFTGSGSGTDFTLKISRVEAEDLGVYYCCQGTHFPWTFGRGTKLEIKRTVAAPSVFIFPPSDEQLKSGTASVVCLLNNFYPREAKVQWKVDNALQSGNSQESVTEQDSKDSTYSLSSTLTLSKADYEKHKVYACEVTHQGLSSPVTKSFNRGEC
heavy 2: QVKLQESGPGLVAPSQSLSITCTVSGFSLTAYGVDWVRQPPGKGLEWLGVIWGGGRTNYNSGLMSRLSIRKDNSKSQVFLTMNSLQTDDTAKYYCVKHTNWDGGFAYWGQGTTVTVSSASTKGPSVFPLAPSSKSTSGGTAALGCLVKDYFPEPVTVSWNSGALTSGVHTFPAVLQSSGLYSLSSVVTVPSSSLGTQTYICNVNHKPSNTKVDKRVEPKSCDKTHTCPPCPAPEAAGGPSVFLFPPKPKDTLMISRTPEVTCVVVDVSHEDPEVKFNWYVDGVEVHNAKTKPREEQYNSTYRVVSVLTVLHQDWLNGKEYKCKVSNKALGAPIEKTISKAKGQPREPQVYTLPPSREEMTKNQVSLTCLVKGFYPSDIAVEWESNGQPENNYKTTPPVLDSDGSFFLYSRLTVDKSRWQQGNVFSCSVMHEALHNHYTQKSLSLSPGK
light 2: DVVMTQSPLSLPVSLGDQASISCRSGQGLVYSNGDTYLHWYLQKPGQSPKLLIYKVSNRFSGVPDRFSGSGSGTDFTLKISRVEAEDLGVYFCSQSTHFPFTFGSGTKLEIKRTVAAPSVFIFPPSDEQLKSGTASVVCLLNNFYPREAKVQWKVDNALQSGNSQESVTEQDSKDSTYSLSSTLTLSKADYEKHKVYACEVTHQGLSSPVTKSFNRGEC
notes: Made by controlled Fab-arm exchange; also called anti-C4BP x anti-biotin
B3: binds [3].

From US20260258117A1 (ACADEMISCH ZIEKENHUIS LEIDEN H O D N LUMC, published 2026)
